These are literature values, as cited in patent publication US9307769B2, “Method for increasing plant yield, and yield improving compositions” (Plant Health Care, Inc., priority 2011, dated 2016).

The conditions of one data set: HR-eliciting fragments, Table 1.
Consider “HrpNEa-1: HR-eliciting fragment, E. amylovora, amino acid residues 43-70 (GLGGGNQNDTVNQLAGLLTGMMMMMSMM; UniProt Q01099 43-70, looked up, fragment)”, for which the pI is 3.09.
Consider “HrpNEa-2: HR-eliciting fragment, E. amylovora, amino acid residues 140-176 (QNDDSTSGTDSTSDSSDPMQQLLKMFSEIMQSLFGDG; UniProt Q01099 140-176, looked up, fragment)”, for which the pI is 3.17.
For the substance “HrpNEch-1: HR-eliciting fragment, E. chrysanthemi, amino acid residues 78-118 (QLGQSFGNGAQGASNLLSVPKSGGDALSKMFDKALDDLLGH; UniProt Q47278 78-118, looked up, fragment)”, the pI is listed as 5.25.
For “HrpWPss-1: HR-eliciting fragment, P. syringae, amino acid residues 52-96 (LAATMFVMAPVAHDIQQRVHEHPLELSNADKLQSSLKVVIEPLQR; UniProt Q60236 52-96, looked up, fragment)”, the pI is reported as 4.32.
As for “HrpNEch-2: HR-eliciting fragment, E. chrysanthemi, amino acid residues 256-295 (DGWSSPKTDDKSWAKALSKPDDDGMTGASMDKFRQAMGMI; UniProt Q47278 256-295, looked up, fragment)”, the pI is on record as 4.62.

Staying with this data set, now noted: building block domains for fusion proteins, Table 2.
“(NN): building block domain, source HrpNEa40-80 (SALGLGGGNQNDTVNQLAGLLTGMMMMMSMMGGGGLMGGGL; UniProt Q01099 40-80, looked up, fragment)”: the pI is 6.78.
For the substance “(NC): building block domain, source HrpNEa140-180 (QNDDSTSGTDSTSDSSDPMQQLLKMFSEIMQSLFGDGQDGT; UniProt Q01099 140-180, looked up, fragment)”, the pI was 5.01.
